Source: publication doi:10.1101/2025.01.14.633037

Test: FRET or BRET; DAmFRET: mEos3.1 fusions expressed in S. cerevisiae, galactose induction 20 hr with 100 uM MG132, partial photoconversion of mEos3.1, flow cytometry; AmFRET between copies of the same protein against its intracellular concentration (approximately 2 to 200 uM)

Question: With “MBP fused to mEos3.1 and poly-TA (28 residues, two continuous TA tracts of length 12)” as the substance, how does the fold increase of Csat against poly-TA without the solubility tag read?
Answer: > 10 fold
